Data reported in US20120045438A1 (Janssen / Centocor, published 2012).
Changes are numbered by the printed parent chain.

B1: Fab clone 2C06 (IL-13-62 library) (Fab, V domains shown)
VH: QVTLKESGPVLVKPTETLTLTCTVSGFSLSTYGMGVGWIRQPPGKALEWLAHIWWDDVKRYNPALKSRLTISKDTSKSQVVLTMTNMDPVDTATYYCARMGSDYDVWFDYWGQGTLVTVSS
VL: EIVLTQSPATLSLSPGERATLSCRASKSISKYLAWYQQKPGQAPRLLIYSGSTQQSGIPARFSGSGSGTDFTLTISSLEPEDFAVYYCQQHDYPYTFGQGTKLEIK
notes: Fab on phage pIX; del = residue deleted
B2: Fab clone 2B07 (IL-13-62 library) (Fab, V domains shown)
VH: B1 VH
VL: EIVLTQSPATLSLSPGERATLSCRASKSISKYLAWYQQKPGQAPRLLIYSGSTLQSGIPARFSGSGSGTDFTLTISSLEPEDFAVYYCQQHDWGPYTFGQGTKLEIK
notes: Fab on phage pIX
B3: Fab clone 1C09 (IL-13-62 library) (Fab, V domains shown)
VH: B1 VH
VL: B2 VL with Q38R, D92N, W93E, G94A
notes: Fab on phage pIX
B4: Fab clone 1B05 (IL-13-62 library) (Fab, V domains shown)
VH: B1 VH
VL: B2 VL with W93R, G94D
notes: Fab on phage pIX
B5: Fab clone 1C06 (IL-13-62 library) (Fab, V domains shown)
VH: B1 VH
VL: B2 VL with D92S
notes: Fab on phage pIX
B6: Fab clone 2D04 (IL-13-62 library) (Fab, V domains shown)
VH: B1 VH
VL: B1 VL with Q54L, H91Q, Y93S
notes: as for B1
B7: Fab clone 1D01 (IL-13-62 library) (Fab, V domains shown)
VH: B1 VH
VL: B2 VL with D92S, W93Y
notes: Fab on phage pIX
B8: Fab clone 1A02 (IL-13-62 library) (Fab, V domains shown)
VH: B1 VH
VL: B2 VL with D92S, G94A
notes: Fab on phage pIX
B9: Fab clone 1A05 (IL-13-62 library) (Fab, V domains shown)
VH: B1 VH
VL: B2 VL with W93Y, G94A
notes: Fab on phage pIX
B10: Fab clone 1A07 (IL-13-62 library) (Fab, V domains shown)
VH: B1 VH
VL: B2 VL with W93N, G94S
notes: Fab on phage pIX
B11: Fab clone 1A06 (IL-13-62 library) (Fab, V domains shown)
VH: B1 VH
VL: B2 VL with D92E
notes: Fab on phage pIX
B12: Fab clone 1C07 (IL-13-62 library) (Fab, V domains shown)
VH: B1 VH
VL: B2 VL with D92E, W93S
notes: Fab on phage pIX
B13: Fab clone without printed name, L-CDR3 Q D G del (IL-13-62 library) (Fab, V domains shown)
VH: B1 VH
VL: B1 VL with Q54L, H91Q, Y93G
notes: as for B1
B14: mAb with Lc 2E04 (Lc6 variant) and Hc2 (antibody, V domains shown)
VH: B1 VH
VL: B2 VL with H91P, D92L, W93E, G94A
notes: human IgG1
B15: mAb with Lc 3B06 (Lc6 variant) and Hc2 (antibody, V domains shown)
VH: B1 VH
VL: B2 VL with D92L, W93M
notes: human IgG1
B16: mAb with Lc 2C09 (Lc6 variant) and Hc2 (antibody, V domains shown)
VH: B1 VH
VL: B2 VL with D92E
notes: human IgG1
B17: mAb with Lc 2E06 (Lc6 variant) and Hc2 (antibody, V domains shown)
VH: B1 VH
VL: B2 VL with D92S, W93S
notes: human IgG1
B18: mAb with Lc 2G01 (Lc6 variant) and Hc2 (antibody, V domains shown)
VH: B1 VH
VL: B2 VL with D92F
notes: human IgG1
B19: mAb with Lc 5D03 (Lc6 variant) and Hc2 (antibody, V domains shown)
VH: B1 VH
VL: B2 VL with D92S, W93Y
notes: human IgG1
B20: mAb with Lc 5B03 (Lc6 variant) and Hc2 (antibody, V domains shown)
VH: B1 VH
VL: B2 VL with Q38R, D92N, W93E, G94A
notes: human IgG1
B21: mAb with Lc 3A09 (Lc6 variant) and Hc2 (antibody, V domains shown)
VH: B1 VH
VL: B2 VL with W93L
notes: human IgG1
B22: mAb with Lc 3A04 (Lc6 variant) and Hc2 (antibody, V domains shown)
VH: B1 VH
VL: B2 VL with H91P, D92L, W93D, G94S
notes: human IgG1
B23: mAb with Lc 3E03 (Lc6 variant) and Hc2 (antibody, V domains shown)
VH: B1 VH
VL: B2 VL with D92N, W93H
notes: human IgG1
B24: mAb with Lc 2E01 (Lc6 variant, Table 8) and Hc2 (antibody, V domains shown)
VH: B1 VH
VL: B2 VL with D92N, W93E, G94A
notes: human IgG1
B25: mAb with Lc 2H08 (Lc6 variant) and Hc2 (antibody, V domains shown)
VH: B1 VH
VL: B2 VL with D92L, W93D, G94S
notes: human IgG1
B26: mAb with Lc 3C06 (Lc6 variant) and Hc2 (antibody, V domains shown)
VH: B1 VH
VL: B2 VL with D92S, W93V
notes: human IgG1
B27: mAb with Lc 3D01 (Lc6 variant) and Hc2 (antibody, V domains shown)
VH: B1 VH
VL: B2 VL with D92V, W93G
notes: human IgG1
B28: mAb with Lc 2C05 (Lc6 variant) and Hc2 (antibody, V domains shown)
VH: B1 VH
VL: B2 VL with H91Q, W93L
notes: human IgG1
B29: mAb with Lc 2H09 (Lc6 variant) and Hc2 (antibody, V domains shown)
VH: B1 VH
VL: B2 VL with H91P, D92I, W93D, G94A
notes: human IgG1
B30: mAb with Lc 3E05 (Lc6 variant) and Hc2 (antibody, V domains shown)
VH: B1 VH
VL: B2 VL with H91P, D92L, W93D, G94T
notes: human IgG1
B31: mAb with Lc 2H01 (Lc6 variant) and Hc2 (antibody, V domains shown)
VH: B1 VH
VL: B2 VL with G94E
notes: human IgG1
B32: mAb with Lc 3G02 (Lc6 variant) and Hc2 (antibody, V domains shown)
VH: B1 VH
VL: B2 VL with D92L, W93N
notes: human IgG1
B33: mAb with Lc 2C01 (Lc6 variant) and Hc2 (antibody, V domains shown)
VH: B1 VH
VL: B2 VL with D92S, W93I
notes: human IgG1
B34: mAb with Lc 3G01 (Lc6 variant) and Hc2 (antibody, V domains shown)
VH: B1 VH
VL: B2 VL with H91P, D92L, W93D, G94V
notes: human IgG1
B35: mAb with Lc 2A03 (Lc6 variant) and Hc2 (antibody, V domains shown)
VH: B1 VH
VL: B2 VL with D92E, W93S
notes: human IgG1
B36: mAb with Lc 3A05 (Lc6 variant) and Hc2 (antibody, V domains shown)
VH: B1 VH
VL: B2 VL with W93N, G94S
notes: human IgG1
B37: mAb with Lc 2C04 (Lc6 variant) and Hc2 (antibody, V domains shown)
VH: B1 VH
VL: B2 VL with D92N, W93F
notes: human IgG1
B38: mAb with Lc 5H04 (Lc6 variant) and Hc2 (antibody, V domains shown)
VH: B1 VH
VL: B2 VL with W93Y, G94A
notes: human IgG1
B39: mAb with Lc 5A02 (Lc6 variant) and Hc2 (antibody, V domains shown)
VH: B1 VH
VL: B2 VL with H91Q, W93Y
notes: human IgG1
B40: mAb with Lc 2E12 (Lc6 variant) and Hc2 (antibody, V domains shown)
VH: B1 VH
VL: B2 VL with G94S
notes: human IgG1
B41: mAb with Lc 5G02 (Lc6 variant) and Hc2 (antibody, V domains shown)
VH: B1 VH
VL: B2 VL with S56G, D92L, W93D, G94S
notes: human IgG1
B42: mAb with Lc 2A01 (Lc6 variant) and Hc2 (antibody, V domains shown)
VH: B1 VH
VL: B2 VL with D92S, W93H
notes: human IgG1
B43: mAb with Lc 2A12 (Lc6 variant) and Hc2 (antibody, V domains shown)
VH: B1 VH
VL: B2 VL with W93P
notes: human IgG1

The binders below were run against T1, human IL-13 R130Q variant (R110Q of the mature chain) (human, UniProt P35225 35-146, Biotinylated on amines (NHS-LC-biotin, 4:1) in ELISA, panning and competition assays. The letters are unchanged.) (assay: single-point (10 nM) phage Fab ELISA on biotinylated IL-13 R130Q).
T1 construct: R130Q counts from Met 1 of the signal peptide, R110Q on the mature chain; Bought from Peprotech; also called IL-13 R110Q; b-R130Q

Row | Binder | Signal (% of Lc16Hc7) [%]
1 | B1 | 128
2 | B2 | 144
3 | B3 | 152
4 | B4 | 108
5 | B5 | 172
6 | B6 | 100
7 | B7 | 144
8 | B8 | 120
9 | B9 | 136
10 | B10 | 120
11 | B11 | 122
12 | B12 | 136
13 | B13 | 184

Each binder was assayed against T1, human IL-13 R130Q variant (R110Q of the …) (assay: Ra2 binding inhibition ELISA, mAb in crude HEK293 supernatant, IL-13 binding to IL-13Ra2).

Row | Binder | % Ra2 Binding Inhibition [%]
14 | B14 | 56.6
15 | B15 | 74.3
16 | B16 | 87.6
17 | B17 | 50.2
18 | B18 | 81.2
19 | B19 | 72.8
20 | B20 | 63
21 | B21 | 76.5
22 | B22 | 67
23 | B23 | 70.9
24 | B24 | 53.9
25 | B25 | 62.3
26 | B26 | 62.1
27 | B27 | 58.5
28 | B28 | 83.8
29 | B29 | 62.5
30 | B30 | 70.8
31 | B31 | 80
32 | B32 | 66.9
33 | B33 | 67.7
34 | B34 | 68.4
35 | B35 | 75.8
36 | B36 | 55.5
37 | B37 | 61.9
38 | B38 | 66.1
39 | B39 | 78.4
40 | B40 | 83
41 | B41 | 66.2
42 | B42 | 72.1
43 | B43 | 78.5
